Columns and labels:
[1] = biological target: T1, mouse CTLA4 (mouse, UniProt P09793 36-223); test: flow cytometry on CHO-mCTLA4 cells; SSC vs Anti-Human-IgGFc-FITC
T1 construct: Expressed on transfected CHO cells; also called mCTLA4
Procedure: 25 ul CHO cells were added to each well.
After being washed with PBS (1200 rmp, 5 min) twice, 50 ul of anti-human IgG Fc antibody fluorescein isothiocyanate conjugate (IgG Fc-FITC) was added at 1:100 dilution into each well and was incubated at 4° C. for 30 minutes, followed by PBS wash. The signals for FITC were determined by flow cytometry.

[2] = biological target: T1, mouse CTLA4; test: flow cytometry on CHO-mCTLA4 cells; SSC vs Anti-mouse-IgGFc-FITC

T1 sequence (P09793 36-223 S182T limits assumed): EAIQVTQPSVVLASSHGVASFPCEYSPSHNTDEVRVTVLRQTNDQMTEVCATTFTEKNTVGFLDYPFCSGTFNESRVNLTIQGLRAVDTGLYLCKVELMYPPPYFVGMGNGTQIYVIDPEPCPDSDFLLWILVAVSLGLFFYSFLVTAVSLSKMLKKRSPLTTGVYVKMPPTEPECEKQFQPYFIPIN

binding result [1] | binding result [2] | Binder
no binding (tested: 1 ug/ml) | – | CT4-04-13A4-mHvKv-IgG1 (antibody, V domains shown) VH: QVQLQQSGAELVRPGASVTLSCKASGYTFTDYEMHWVKQTPVHGLEWIGVIDPETGGTAYNQKFKGKATLTADRSSSTAYMELRSLTSEDSAVYYCTRGTTVVGLDYWGQGTTLTVSS VL: DIQMTQSPASLSASVGESVTITCRASGNIHNYLAWYQQKQGKSPQLLVYKEKTLTDTVPSRFSGSGSGTQFSLKINSLQPEDFGSYYCQHFWSTPWTFGGGTNLEIK
– | no binding (tested: 1 ug/ml) | CT4-20-6D2 (antibody, V domains shown, Mouse monoclonal antibody purified from ascites fluid) VH: QVQLQQSGAELVRPGASVTLSCKASGYTFTDYEMHWVKQTPVHGLEWIGTIDPETGGTAYNQKFKGKATLTTDKSSSTAYMELRSLTSEDSAVYYCTRRGKYGNYDYVMDYWGQGTSVTVSS VL: DIQMTQSPASLSASVGETVTITCRASGNIHNYLAWYQQKQGKSPQLLVFNAKTLADGVPSRFSGSGSGTQYSLKINSLQPEDFGNYYCQHFWSTPWTFGGGTKLEIK
no binding (tested: 1 ug/ml) | – | CT4-03-4G12-mHvKv-IgG1 (antibody, V domains shown) VH: DVKLVESGGGLVKPGGSLKLSCTASGFTFSSYTMSWVRQTPEKRLEWVATISRGGGYTSYPDSVKGRFTISRDNAKNTLYLQMSSLQSEDTAMYYCARDDYGSSYVHWFAYWGQGTLVTVSA VL: DIQMTQSPASLSASVGETVTITCRAGENIYSYLAWYQQKQGKSPQLLVYNARTLAEGVPSRFSGSGSGTQFSLKINSLQPEDFGSYYCQHHYGSPRTFGGGTKLEIK
– | no binding (tested: 1 ug/ml) | CT4-20-7E12 (antibody, V domains shown, Mouse monoclonal antibody purified from ascites fluid) VH: EVKLDETGGGLVQPGRPMKLSCVASGFTFSDYWMNWVRQSPEKGLEWVAQIRNKPYNYETHYSDSVKGRFTISRDDSKSSVYLQMNNLRGEDMGIYYCTGTFAYWGQGTLVTVSA VL: DIQMTQSPTSLSASVGETVTITCGTSENIYGGLNWYQRKQGKSPQLLIYGATNLADGMSSRFSGSGSGRQYSLKISSLHPDDVATYYCQNVLSTPYTFGGGTKLEIK

— patent publication US20240343806A1 (EUCURE BEIJING BIOPHARMA, published 2024)
